For assay [1], the target named is T1, human amylin 3(a) receptor (human calcitonin receptor co-expressed with RAMP-3) (human, UniProt P30988 25-474; O60896 24-148, limits assumed).
T1 sequence (looked up) 1: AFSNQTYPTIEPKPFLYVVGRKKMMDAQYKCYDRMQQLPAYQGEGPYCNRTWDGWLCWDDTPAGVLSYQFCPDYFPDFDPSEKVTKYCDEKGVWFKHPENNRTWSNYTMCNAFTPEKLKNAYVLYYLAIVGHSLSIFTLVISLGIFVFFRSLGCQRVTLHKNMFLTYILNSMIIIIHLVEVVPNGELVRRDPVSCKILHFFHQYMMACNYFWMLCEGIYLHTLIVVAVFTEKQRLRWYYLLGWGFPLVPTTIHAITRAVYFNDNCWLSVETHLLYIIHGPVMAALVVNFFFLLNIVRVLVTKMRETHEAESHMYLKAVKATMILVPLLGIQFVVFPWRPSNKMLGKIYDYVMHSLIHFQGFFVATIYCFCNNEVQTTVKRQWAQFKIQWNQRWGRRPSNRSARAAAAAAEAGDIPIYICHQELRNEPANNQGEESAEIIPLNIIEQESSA
T1 sequence (looked up) 2: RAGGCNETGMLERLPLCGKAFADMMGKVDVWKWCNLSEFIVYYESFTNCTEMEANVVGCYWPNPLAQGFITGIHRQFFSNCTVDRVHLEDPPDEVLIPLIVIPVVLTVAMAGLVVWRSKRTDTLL
The experiment in a line: cell-based or functional assay.

For assay [2], the target named is T2, human calcitonin receptor (human, UniProt P30988 25-474).
T2 sequence (looked up): T1 sequence (looked up) 1
Kind of assay: cell-based or functional assay.

Numbered stars: 1 amine (or outer) side, 2 acyl side, 3 side chain; on linkers, the order of the positions; unused ones are H or OH. Bridge positions count the residues as written; N and C are the ends. Side chains are listed from the residue outwards. Ends that are not written are not given here. * marks the point of attachment. C20 diacid = O=C(O)CCCCCCCCCCCCCCCCCCC(=O)*; γGlu = O=C(O)[C@H](CCC(=O)[*:2])N[*:1]; AEEA = NCCOCCOCC(=O)O

B1: N^ε1-[2-[2-[2-[[2-[2-[2-[[(4S)-4-carboxy-4-(19-carboxynonadecanoylamino)butanoyl]amino]ethoxy]ethoxy]acetyl]amino]ethoxy]ethoxy]acetyl]-[Arg17,Pro21,Pro27,His34 … (peptide)
peptide: K([AEEA-AEEA-γGlu-C20 diacid])CNTATCATQRLANFLRHSSPNFGAIPSSTNVGHNTY-NH2
modifications: disulfide 2-7; N-terminus assumed
SMILES: CC[C@H](C)[C@H](NC(=O)[C@H](C)NC(=O)CNC(=O)[C@H](Cc1ccccc1)NC(=O)[C@H](CC(N)=O)NC(=O)[C@@H]1CCCN1C(=O)[C@H](CO)NC(=O)[C@H](CO)NC(=O)[C@H](Cc1c[nH]cn1)NC(=O)[C@H](CCCNC(=N)N)NC(=O)[C@H](CC(C)C)NC(=O)[C@H](Cc1ccccc1)NC(=O)[C@H](CC(N)=O)NC(=O)[C@H](C)NC(=O)[C@H](CC(C)C)NC(=O)[C@H](CCCNC(=N)N)NC(=O)[C@H](CCC(N)=O)NC(=O)[C@@H](NC(=O)[C@H](C)NC(=O)[C@@H]1CSSC[C@H](NC(=O)[C@@H](N)CCCCNC(=O)COCCOCCNC(=O)COCCOCCNC(=O)CC[C@H](NC(=O)CCCCCCCCCCCCCCCCCCC(=O)O)C(=O)O)C(=O)N[C@@H](CC(N)=O)C(=O)N[C@@H]([C@@H](C)O)C(=O)N[C@@H](C)C(=O)N[C@@H]([C@@H](C)O)C(=O)N1)[C@@H](C)O)C(=O)N1CCC[C@H]1C(=O)N[C@@H](CO)C(=O)N[C@@H](CO)C(=O)N[C@H](C(=O)N[C@@H](CC(N)=O)C(=O)N[C@H](C(=O)NCC(=O)N[C@@H](Cc1c[nH]cn1)C(=O)N[C@@H](CC(N)=O)C(=O)N[C@H](C(=O)N[C@@H](Cc1ccc(O)cc1)C(N)=O)[C@@H](C)O)C(C)C)[C@@H](C)O
notes: also called compound 97
Turning to B1, the “hAmylin-R funct. EC50” value in assay [1] turned out to be 356 pM. Moreover, in assay [2], the “Ratio hCT/hAmylin funct.” value is 33 and the “hCTR funct. EC50” value came out at 11.8 nM.

B2: N^ε1-[2-[2-[2-[[(4S)-4-carboxy-4-(19-carboxynonadecanoylamino)butanoyl]amino]ethoxy]ethoxy]acetyl]-[Arg14,Arg17,Pro21,Pro27]-h-amylin (peptide)
peptide: K([AEEA-γGlu-C20 diacid])CNTATCATQRLARFLRHSSPNFGAIPSSTNVGSNTY-NH2
modifications: disulfide 2-7; N-terminus assumed
SMILES: CC[C@H](C)[C@H](NC(=O)[C@H](C)NC(=O)CNC(=O)[C@H](Cc1ccccc1)NC(=O)[C@H](CC(N)=O)NC(=O)[C@@H]1CCCN1C(=O)[C@H](CO)NC(=O)[C@H](CO)NC(=O)[C@H](Cc1c[nH]cn1)NC(=O)[C@H](CCCNC(=N)N)NC(=O)[C@H](CC(C)C)NC(=O)[C@H](Cc1ccccc1)NC(=O)[C@H](CCCNC(=N)N)NC(=O)[C@H](C)NC(=O)[C@H](CC(C)C)NC(=O)[C@H](CCCNC(=N)N)NC(=O)[C@H](CCC(N)=O)NC(=O)[C@@H](NC(=O)[C@H](C)NC(=O)[C@@H]1CSSC[C@H](NC(=O)[C@@H](N)CCCCNC(=O)COCCOCCNC(=O)CC[C@H](NC(=O)CCCCCCCCCCCCCCCCCCC(=O)O)C(=O)O)C(=O)N[C@@H](CC(N)=O)C(=O)N[C@@H]([C@@H](C)O)C(=O)N[C@@H](C)C(=O)N[C@@H]([C@@H](C)O)C(=O)N1)[C@@H](C)O)C(=O)N1CCC[C@H]1C(=O)N[C@@H](CO)C(=O)N[C@@H](CO)C(=O)N[C@H](C(=O)N[C@@H](CC(N)=O)C(=O)N[C@H](C(=O)NCC(=O)N[C@@H](CO)C(=O)N[C@@H](CC(N)=O)C(=O)N[C@H](C(=O)N[C@@H](Cc1ccc(O)cc1)C(N)=O)[C@@H](C)O)C(C)C)[C@@H](C)O
notes: also called compound 82
Regarding B2, the “hAmylin-R funct. EC50” value in assay [1] came to 215 pM. Besides, in assay [2], the “Ratio hCT/hAmylin funct.” value turned out to be 59.2 and the “hCTR funct. EC50” value amounted to 12.7 nM.

B3: N^ε1-[2-[2-[2-[[2-[2-[2-[[(4S)-4-carboxy-4-(19-carboxynonadecanoylamino)butanoyl]amino]ethoxy]ethoxy]acetyl]amino]ethoxy]ethoxy]acetyl]-[Arg17,Pro21,Pro27,Pro34 … (peptide)
peptide: K([AEEA-AEEA-γGlu-C20 diacid])CNTATCATQRLANFLRHSSPNFGAIPSSTNVGPNTY-NH2
modifications: disulfide 2-7; N-terminus assumed
SMILES: CC[C@H](C)[C@H](NC(=O)[C@H](C)NC(=O)CNC(=O)[C@H](Cc1ccccc1)NC(=O)[C@H](CC(N)=O)NC(=O)[C@@H]1CCCN1C(=O)[C@H](CO)NC(=O)[C@H](CO)NC(=O)[C@H](Cc1c[nH]cn1)NC(=O)[C@H](CCCNC(=N)N)NC(=O)[C@H](CC(C)C)NC(=O)[C@H](Cc1ccccc1)NC(=O)[C@H](CC(N)=O)NC(=O)[C@H](C)NC(=O)[C@H](CC(C)C)NC(=O)[C@H](CCCNC(=N)N)NC(=O)[C@H](CCC(N)=O)NC(=O)[C@@H](NC(=O)[C@H](C)NC(=O)[C@@H]1CSSC[C@H](NC(=O)[C@@H](N)CCCCNC(=O)COCCOCCNC(=O)COCCOCCNC(=O)CC[C@H](NC(=O)CCCCCCCCCCCCCCCCCCC(=O)O)C(=O)O)C(=O)N[C@@H](CC(N)=O)C(=O)N[C@@H]([C@@H](C)O)C(=O)N[C@@H](C)C(=O)N[C@@H]([C@@H](C)O)C(=O)N1)[C@@H](C)O)C(=O)N1CCC[C@H]1C(=O)N[C@@H](CO)C(=O)N[C@@H](CO)C(=O)N[C@H](C(=O)N[C@@H](CC(N)=O)C(=O)N[C@H](C(=O)NCC(=O)N1CCC[C@H]1C(=O)N[C@@H](CC(N)=O)C(=O)N[C@H](C(=O)N[C@@H](Cc1ccc(O)cc1)C(N)=O)[C@@H](C)O)C(C)C)[C@@H](C)O
notes: also called compound 98
In the case of B3, the “hAmylin-R funct. EC50” value in assay [1] was 84 pM. Also, in assay [2], the “Ratio hCT/hAmylin funct.” value was 19.5 and the “hCTR funct. EC50” value was 1.63 nM.

B4: N^ε1-[2-[2-[2-[[2-[2-[2-[[(4S)-4-carboxy-4-(19-carboxynonadecanoylamino)butanoyl]amino]ethoxy]ethoxy]acetyl]amino]ethoxy]ethoxy]acetyl]-[Arg17,Pro21,Pro27,Pro31 … (peptide)
peptide: K([AEEA-AEEA-γGlu-C20 diacid])CNTATCATQRLANFLRHSSPNFGAIPSSTPVGSNTY-NH2
modifications: disulfide 2-7; N-terminus assumed
SMILES: CC[C@H](C)[C@H](NC(=O)[C@H](C)NC(=O)CNC(=O)[C@H](Cc1ccccc1)NC(=O)[C@H](CC(N)=O)NC(=O)[C@@H]1CCCN1C(=O)[C@H](CO)NC(=O)[C@H](CO)NC(=O)[C@H](Cc1c[nH]cn1)NC(=O)[C@H](CCCNC(=N)N)NC(=O)[C@H](CC(C)C)NC(=O)[C@H](Cc1ccccc1)NC(=O)[C@H](CC(N)=O)NC(=O)[C@H](C)NC(=O)[C@H](CC(C)C)NC(=O)[C@H](CCCNC(=N)N)NC(=O)[C@H](CCC(N)=O)NC(=O)[C@@H](NC(=O)[C@H](C)NC(=O)[C@@H]1CSSC[C@H](NC(=O)[C@@H](N)CCCCNC(=O)COCCOCCNC(=O)COCCOCCNC(=O)CC[C@H](NC(=O)CCCCCCCCCCCCCCCCCCC(=O)O)C(=O)O)C(=O)N[C@@H](CC(N)=O)C(=O)N[C@@H]([C@@H](C)O)C(=O)N[C@@H](C)C(=O)N[C@@H]([C@@H](C)O)C(=O)N1)[C@@H](C)O)C(=O)N1CCC[C@H]1C(=O)N[C@@H](CO)C(=O)N[C@@H](CO)C(=O)N[C@H](C(=O)N1CCC[C@H]1C(=O)N[C@H](C(=O)NCC(=O)N[C@@H](CO)C(=O)N[C@@H](CC(N)=O)C(=O)N[C@H](C(=O)N[C@@H](Cc1ccc(O)cc1)C(N)=O)[C@@H](C)O)C(C)C)[C@@H](C)O
notes: also called compound 96
Regarding B4, the “hAmylin-R funct. EC50” value in assay [1] came to 181 pM. Moreover, in assay [2], the “Ratio hCT/hAmylin funct.” value worked out at 21 and the “hCTR funct. EC50” value came out at 3.8 nM.

For the origin of these results see US20140087995A1 (published 2014).
